Results taken from patent US20220177579A1 (Memorial Sloan Kettering, published 2022).

Molecular target: T1, human CD19 on CD19(+) NALM6 acute lymphoid leukemia cells (human, UniProt P15391 20-556)
T1 sequence: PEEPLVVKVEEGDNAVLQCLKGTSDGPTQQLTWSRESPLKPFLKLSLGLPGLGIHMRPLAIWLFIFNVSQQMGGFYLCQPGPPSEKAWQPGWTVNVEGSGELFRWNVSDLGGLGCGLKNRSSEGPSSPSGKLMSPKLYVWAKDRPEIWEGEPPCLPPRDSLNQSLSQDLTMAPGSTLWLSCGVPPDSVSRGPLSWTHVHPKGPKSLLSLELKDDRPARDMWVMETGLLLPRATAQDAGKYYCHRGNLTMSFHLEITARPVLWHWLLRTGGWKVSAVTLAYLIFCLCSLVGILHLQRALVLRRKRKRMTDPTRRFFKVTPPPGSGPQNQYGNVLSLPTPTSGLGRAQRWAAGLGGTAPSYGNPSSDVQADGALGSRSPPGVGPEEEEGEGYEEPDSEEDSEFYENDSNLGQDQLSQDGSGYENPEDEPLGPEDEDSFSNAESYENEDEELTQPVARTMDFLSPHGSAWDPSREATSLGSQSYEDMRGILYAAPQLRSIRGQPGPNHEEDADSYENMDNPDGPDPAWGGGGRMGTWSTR
Test: cell-based or functional assay

EC50 for cell lysis of NALM6 cells (standard 4-hour 51Cr release assay with activated T cells): 0.042 pM
B1: CD19-BsAb BC250 (hFMC63 VL-2/VH-1b x CD3 IgG-scFv bispecific antibody) (bispecific antibody)
heavy: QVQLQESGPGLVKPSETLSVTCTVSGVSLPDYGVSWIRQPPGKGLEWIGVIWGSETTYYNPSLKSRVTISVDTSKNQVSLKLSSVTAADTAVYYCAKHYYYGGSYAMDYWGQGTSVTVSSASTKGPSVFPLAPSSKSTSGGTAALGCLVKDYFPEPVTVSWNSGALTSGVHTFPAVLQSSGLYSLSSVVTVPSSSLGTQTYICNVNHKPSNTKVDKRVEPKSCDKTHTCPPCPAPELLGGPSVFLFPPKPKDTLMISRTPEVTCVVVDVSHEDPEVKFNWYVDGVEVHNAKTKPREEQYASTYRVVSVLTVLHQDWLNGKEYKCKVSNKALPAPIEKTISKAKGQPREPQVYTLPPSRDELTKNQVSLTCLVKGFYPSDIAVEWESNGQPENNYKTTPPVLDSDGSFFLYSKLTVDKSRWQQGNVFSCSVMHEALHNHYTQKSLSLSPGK
light: DIQMTQSPSSLSASVGDRVTITCQASQDISKYLNWYQQKPGKAVKLLIYHTSRLHSGVPSRFSGSGSGTDYTLTISSLQPEDIATYFCQQGNTLPYTFGGGTKLEITRTVAAPSVFIFPPSDEQLKSGTASVVCLLNNFYPREAKVQWKVDNALQSGNSQESVTEQDSKDSTYSLSSTLTLSKADYEKHKVYACEVTHQGLSSPVTKSFNRGECTSGGGGSGGGGSGGGGSQVQLVQSGGGVVQPGRSLRLSCKASGYTFTRYTMHWVRQAPGKCLEWIGYINPSRGYTNYNQKFKDRFTISRDNSKNTAFLQMDSLRPEDTGVYFCARYYDDHYSLDYWGQGTPVTVSSGGGGSGGGGSGGGGSGGGGSGGGGSGGGGSDIQMTQSPSSLSASVGDRVTITCSASSSVSYMNWYQQTPGKAPKRWIYDTSKLASGVPSRFSGSGSGTDYTFTISSLQPEDIATYYCQQWSSNPFTFGCGTKLQITR
